Residue numbers refer to the chain shown, from its start.
Experiments:
Assay in all cases: fluorescence polarisation
Rb^P R656Q = biological target: T1, Rb^P R656Q (human, UniProt P06400 380-788, R656Q)
T1 sequence: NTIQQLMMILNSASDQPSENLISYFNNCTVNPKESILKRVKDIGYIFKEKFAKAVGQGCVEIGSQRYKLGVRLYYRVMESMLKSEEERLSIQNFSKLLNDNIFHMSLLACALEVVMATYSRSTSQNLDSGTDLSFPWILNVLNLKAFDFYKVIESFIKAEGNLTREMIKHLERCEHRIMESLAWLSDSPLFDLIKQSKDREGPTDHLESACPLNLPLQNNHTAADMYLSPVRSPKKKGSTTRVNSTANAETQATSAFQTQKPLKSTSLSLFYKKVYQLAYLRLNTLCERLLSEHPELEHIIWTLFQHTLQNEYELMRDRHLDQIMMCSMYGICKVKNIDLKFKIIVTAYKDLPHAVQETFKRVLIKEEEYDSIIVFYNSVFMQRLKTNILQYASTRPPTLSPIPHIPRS

Rb^P M704V = biological target: T2, Rb^P M704V (human, UniProt P06400 380-788, M704V)
T2 sequence: T1 sequence with Q277R, M325V

Rb^P S751Y = biological target: T3, Rb^P S751Y (human, UniProt P06400 380-788, S751Y)
T3 sequence: T1 sequence with Q277R, S372Y

Rb^P E554K = biological target: T4, Rb^P E554K (human, UniProt P06400 380-788, E554K)
T4 sequence: T1 sequence with E175K, Q277R

[1] = biological target: T5, wild type Rb pocket domain (Rb^P) (human, UniProt P06400 380-788)
T5 sequence: T1 sequence with Q277R

**Q.** What does the source list for DLYCYEQLN (not fully specified; TMR fluorescent label (TMR-E7^LxCxE)) [TMR-E7^LxCxE (LxCxE peptide of the E7 oncoprotein from HPV, TMR-labeled)]?
**A.** binding result (Rb^P R656Q): binds; Kd (Rb^P M704V): 0.014 µM; Kd (Rb^P S751Y): 0.012 µM; Kd (Rb^P E554K): 0.024 µM; Kd [1]: 0.007 µM

From doi:10.1101/2024.09.22.614354 (bioRxiv, 2024)
